{
  "source": "patent US20120003684A1",
  "about": "“Method and Means for Detecting the Activity of Osteoclasts” (TECHNISCHE UNIVERSITAET DRESDEN, priority 2009, published 2012)",
  "key": {"[1]": {"test_system": "primary mouse osteoclast precursor cells (primary mouse bone marrow monocytes)", "experiment": "osteoclast resorption assay on bio-mineralized matrix, MCSF dependency (FIG. 1)", "type": "cell-based", "settings": "RANKL (40 ng/ml) present, as a function of MCSF concentration", "from_the_text": "The sequence is divided into two phases. In phase I, the matrix synthesis with osteoblasts occurs; the latter, after production of the matrix (approximately 25 days), are removed from the matrix. The subsequent phase II encompasses the use of the matrix for the osteoclast resorption assay. In this connection, the method in this example was employed in order to examine the resorption activity of primary mouse osteoclast precursor cells (primary mouse bone marrow monocytes) as a function of the concentration of MCSF (macrophage colony-stimulating factor).\n(§1) For the synthesis of a bone-like physiological matrix, the human osteoblast precursor cell line SAOS-2 (DSMZ ACC 243, DSMZ, Braunschweig) is used in this embodiment. The cells are seeded on cell culturing plates. […]\n(§2) The resorption assay is based on the combination of two methods with each other. […] For determining the resorption surface area the dried plates were subsequently scanned by a transmitted light scanner and evaluated e.g. by means of Image Quant. In this connection, the scanned surface area was determined and white surfaces differentiated from black surfaces. The volume of the white surface area can then be calculated by means of the calibration line (see FIG. 2) into the actual resorted surface area."}, "[2]": {"test_system": "osteoclasts differentiated by RANKL from mouse osteoclast precursor cell line RAW 264.7", "experiment": "osteoclast resorption assay on bio-mineralized matrix, inhibition study (FIG. 4)", "type": "cell-based", "settings": "RAW 264.7 differentiated by RANKL addition (40 ng/ml)", "description": "Moreover, particularly in medical research the examination of inhibiting materials or activators of osteoclast activity is especially of interest. As an example, in FIG. 4 it is shown that the osteoclast activity depends on the inhibitor interferon-y. The osteoclasts were differentiated by RANKL addition (40 ng/ml)) from a mouse osteoclast precursor cell line (RAW 264.7). […] Accordingly, the invention can also be utilized for inhibition studies in relation to osteoclast resorption activity.\nas §1, with “plates. The differentiation of the cells is realized by addition of ascorbate (300 μmol/l) and β-glycerophosphate (10 mmol/l) to the medium (alpha MEM, Biochrom, 10% FCS).” for “plates.”\nas §2"}},
  "data": [
    {"molecule": "MCSF: macrophage colony-stimulating factor, cytokine added for osteoclast differentiation (protein, UniProt P09603 33-554, looked up) Macrophage colony-stimulating …: EEVSEYCSHMIGSGHLQSLQRLIDSQMETSCQITFEFVDQEQLKDPVCYLKKAFLLVQDIMEDTMRFRDNTPNAIAIVQLQELSLRLKSCFTKDYEEHDKACVRTFYETPLQLLEKVKNVFNETKNLLDKDWNIFSKNCNNSFAECSSQDVVTKPDCNCLYPKAIPSSDPASVSPHQPLAPSMAPVAGLTWEDSEGTEGSSLLPGEQPLHTVDPGSAKQRPPRSTCQSFEPPETPVVKDSTIGGSPQPRPSVGAFNPGMEDILDSAMGTNWVPEEASGEASEIPVPQGTELSPSRPGGGSMQTEPARPSNFLSASSPLPASAKGQQPADVTGTALPRVGPVRPTGQDWNHTPQKTDHPSALLRDPPEPGSPRISSLRPQGLSNPSTLSAQPQLSRSHSSGSVLPLGELEGRRSTRDRRSPAEPEGGPASEGAARPLPRFNSVPLTDTGHERQSEGSFSPQLQESVFHLLVPSVILVLLAVGGLLFYRWRRRSHQEPQRADSPLEQPEGSPLTQDDRQVELPV", "values": [
      {"measurement": "resorption activity of the differentiated osteoclasts", "setting": "[1]", "result": "depends on the quantity of added MCSF"}
    ]},
    {"molecule": "interferon-y: inhibitor of osteoclast activity (protein, UniProt P01579 24-161, looked up) Interferon gamma: QDPYVKEAENLKKYFNAGHSDVADNGTLFLGILKNWKEESDRKIMQSQIVSFYFKLFKNFKDDQSIQKSVETIKEDMNVKFFNSNKKKRDDFEKLTNYSVTDLNVQRKAIHELIQVMAELSPAAKTGKRKRSQMLFRG", "values": [
      {"measurement": "osteoclast activity (resorption activity)", "setting": "[2]", "result": "concentration-dependent inhibition"}
    ]}
  ]
}
